Experimental data taken from patent publication US20250355001A1, “METHOD FOR DETECTING A TAU PROTEIN FRAGMENT IN A SAMPLE” (GTINVENT LIMITED, priority 2022, published 2025).

Columns and labels:
[1] = molecular target: T1, hT40 (T441, SEQ ID NO: 1) (Homo sapiens, UniProt P10636); assay: Biacore X100 SPR kinetics of scAbs for hT40; format: binding; details: Table 23; scAb captured, T441 (hT40) analyte; 1:1 model
T1 construct: Full length tau (hT40)
How it was run: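 Captured scAb on anti-HuCk CM5 surface (flow cell 1 as reference) in HBS-EP+, capture set for theoretical RMax 100 RU; hT40 injected multi-cycle (0.15625–100 nM) or single-cycle (6.25–100 nM), 120 s association, 420 s dissociation, glycine pH 2.0 regeneration. Kinetics and affinity from 1:1 binding model fit.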

[2] = system: hT40, dGA, dGAE and truncated tau fragments; assay: Binding ELISA / epitope mapping of anti-tau scAbs with truncated tau proteins and 13mer peptides; parameters: species or system human; details: for Tau proteins/fragments with positive scAb reactivity / Shortest region bound on hT40: Table 17, 'C' group scAbs; for Tau proteins/fragments with positive scAb reactivity: binding ELISA; for Shortest region bound on hT40: incl. 13mer peptides
How it was run: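 Plates coated with 1 μg/ml tau protein, or 5 μg/ml streptavidin then 1 μg/ml biotinylated 13mer peptide; blocked with 2% MPBS. scAbs added at a starting concentration and double-diluted. Bound scAb detected with HRP anti-human C kappa and read as absorbance.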

[3] = system: 13 aa tau peptides of hT40; assay: Alanine scanning mutagenesis (ASM) peptide ELISA; format: binding, human; details: alanine substituted peptides; numbering SEQ ID NO: 1
Protocol: Briefly, 5 μg/ml streptavidin (Thermo Fisher) was adsorbed to Nunc 96-well MaxiSorp plates and following incubation at 37° C. for 1 h, the plates were washed as normal and blocked with 2% MPBS. N-terminally biotinylated peptides (Prolmmune Ltd) were added to the plates and incubated for 1 h at 37° C. Subsequently, test scAbs at starting concentrations of 100-500 nM was added and double diluted across the plate for each peptide and incubated for 1 h at 37° C. Rest of the ELISA was conducted as described above and the plates were read at absorbance 450 nm. Immunoreactivity of the scAb of interest was quantified as the % of scAb was bound for each peptide at a chosen concentration (FIG. 15-20).

[4] = molecular target: dGAE aggregates (Homo sapiens, UniProt P10636); assay: Epitope occlusion assay: dGAE aggregation with/without LMTM, 423 mAb capture ELISA; format: biochemical; details: total and supernatant samples; 423 mAb capture
Protocol: During dGAE aggregation in vitro, scAb binding regions on dGA/dGAE are ‘hidden’ or ‘occluded’ which leads to a loss of immunoreactivity in aggregation samples. Here we have shown the occlusion of binding regions in aggregated dGAE samples and the recovery of immunoreactivity in the presence of LMTM, a tau-aggregation inhibitor. For preparing the aggregates, 10 μl 10 mM DTT was added to 1000 μl 100 μM dGAE and agitated with/without LMTM (1:5 ratio) at 700 rpm for 24 h at 37° C. Following overnight agitation, one third of each sample was kept aside as ‘total’ and the rest was spun down at 16000×g for 30 min and separated into ‘supernatant’ and ‘pellet’. The pellet was then resuspended in half the original volume for further experiments. […] Doubling dilutions of dGAE aggregate ‘total’, ‘supernatant’ and ‘pellet’ samples at 10 μg/ml starting concentration were added to designated wells in doubling dilutions in 1×PBS. dGAE monomer (non-aggregated) was included as assay control. All double dilutions were done in final volumes of 100 μl. This was left to incubate on lab bench for 1 h followed by the addition of test scAbs at 10 μg/ml. Anti-HuCk HRP labelled secondary antibody was added as described previously and ELISA data generated is represented using the graph below.

[5] = molecular target: T2, htau40 (Homo sapiens, UniProt P10636); assay: Biacore X100 SPR kinetics of anti-tau mAbs on immobilised htau40; format: binding; details: for ka / kd: Table 27, mAb format, immobilised htau40
T2 construct: Full length tau (hT40)
Protocol: For anti-tau mAb SPR measurements, htau40 was conjugated to the surface of a CM5 sensor chip using amine coupling as explained previously. Briefly, 2 μg/mL htau40 in 10 mM Sodium acetate buffer (pH 4.0) was passed over the activated chip surface (EDC/NHS) in flow cell 2 for a period for 45 s followed by blocking with 1 M ethanolamine-HCl PH 8.5. Flow cell 1 was set up as reference control and blocked simultaneously. Final immobilisation level of htau40 (Rmax) was approximately 250 RU. Following a minimum of three start-up cycles, increasing concentrations (0.78 nM-25 nM) of the mAb in HBS-EP+ buffer was added at a rate of […] to the chip. The mAb was added for a 120 s association period and 600 s dissociation period followed by a regeneration cycle of 30 s injection of glycine buffer pH 1.5 in between each cycle. Binding responses were analysed in Biacore X100 evaluation software and data fitted to a 1:1 binding model to obtain kinetic and affinity characterisation.
For anti-tau mAb SPR measurements (Biacore X100™) and epitope mapping, the same methodologies described above (see Example 16) were followed. Kinetic rates and equilibrium binding constants of additional anti-tau mAbs and the regions recognised on hT40 are given in the Table 25 below

[6] = molecular target: T3, hT40 (Homo sapiens, UniProt P10636); assay: Sandwich ELISA limits of detection (LoD) of antibody pairs; format: binding; details: S1G2 mAb capture, HRP labelled S1D12 mAb detection, chemiluminescence
T3 construct: Full length tau (hT40)
Excerpt: The diverse panel of high affinity anti-tau antibodies (scAb and mAb formats) were paired in various combinations and tested in a Sandwich (or Capture) ELISA format to calculate their limits of detection (LoD) and their ability to differentiate between different tau species. Biologically, tau exists in 6 different isoforms and is subjected to numerous post translational modifications, some of them playing a significant role in the progression of neurodegeneration.
For Sandwich ELISA using colourimetric detection, 96 well Maxisorp plates were coated with the capture antibody S1D12 mAb at 1 μg/ml for 1 h at RT followed by blocking with 2% MPBS as normal. Full length tau (hT40), at 1 μg/ml starting concentration was added to designated wells and double diluted across rest of the plates and left to incubate at R/T for 1 h. A series of detection scAbs with varying epitope recognition properties were added at 10 μg/ml to designated wells (FIG. 22). For colourimetric detection HRP conjugated anti-HuCk secondary antibody was used and the resulting immunoreaction was developed and absorbance at 450 nm measured as described previously. Cut-off point for a positive binding event was an absorbance value of 0.3 following background subtraction. In order to enhance the assay sensitivity, a chemiluminescent detection method was adopted where 50 μL SuperSignal ELISA Femto Substrate (Thermo Scientific) was added to each well following incubation with anti-HuCK HRP antibody and subsequent washing. The luminescence was read using Clariostar Plus microplate reader. A further modification to this protocol was done where various detection scAbs were directly conjugated with HRP and detected using chemiluminescent protocol as before. The lowest levels of detection achieved using different detection scAbs and a comparison of colourimetric and chemiluminescent methods of detection are shown in Table 28
Similarly, a sandwich ELISA format was set up using S1G2 mAb at 1 μg/ml as the capture antibody and HRP conjugated S1D12 mAb for detection. The assay was conducted using chemiluminescent protocol described above.

[7] = Table 26 summary, top scAbs, residues of hT40
[8] = residue numbers of SEQ ID NO: 1 (hT40), CDR Tables 1-11

T2 sequence (P10636 1-441 isoform P10636-8): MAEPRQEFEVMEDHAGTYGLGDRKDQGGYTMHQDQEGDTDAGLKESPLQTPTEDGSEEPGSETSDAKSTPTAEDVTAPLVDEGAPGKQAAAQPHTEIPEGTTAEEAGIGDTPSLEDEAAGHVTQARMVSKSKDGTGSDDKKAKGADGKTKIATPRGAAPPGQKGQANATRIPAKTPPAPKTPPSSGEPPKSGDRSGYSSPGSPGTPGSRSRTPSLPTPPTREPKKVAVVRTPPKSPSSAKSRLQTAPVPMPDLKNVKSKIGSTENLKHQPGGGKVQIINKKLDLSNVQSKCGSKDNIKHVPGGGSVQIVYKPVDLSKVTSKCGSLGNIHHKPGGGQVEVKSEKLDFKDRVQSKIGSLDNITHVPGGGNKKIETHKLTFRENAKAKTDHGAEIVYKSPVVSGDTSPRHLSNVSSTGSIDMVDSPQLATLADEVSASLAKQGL
T1 sequence (P10636 1-441 isoform P10636-8): as above
dGAE aggregates, sequence (P10636 614-708): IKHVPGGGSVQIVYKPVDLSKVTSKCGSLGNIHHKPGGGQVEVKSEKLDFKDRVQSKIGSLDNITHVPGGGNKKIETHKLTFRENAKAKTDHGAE
T3 sequence (P10636 1-441 isoform P10636-8): as the sequence (P10636 1-441 isoform P10636-8) above

Molecule | ka [1] [M⁻¹ s⁻¹] | kd [1] [s⁻¹] | Tau proteins/fragments with positive scAb reactivity [2] | Shortest region bound on hT40 [2] | Epitope [2, 7] | Detection scAb (Epitope) ([2]; Table 28 (LoD table), residues of hT40) | Binding regions on hT40 ([2]; Table 33, core binding scAbs tested in epitope occlusion assays) | Epitope [2, 8] | critical binding residues [3] | immunoreactivity to dGAE aggregation samples prepared in the presence of LMTM [4] | ka [5] [M⁻¹ s⁻¹] | kd [5] [s⁻¹] | Kd ([5]; as quoted in Example 32, read-out: affinity) [nM] | LOD for hT40 [6] [ng/mL]
CA4: anti-tau core clone, Table 10; SEQ ID NO: 368 (protein, CA4 amino acid sequence) scFv: QVQLQESGPSLVKPSQTLSLTCTVSGFSLTSYSVYWVRQAPGQALEWISIMYASGRVDYNPALKSRLSITRDTSKSQFSLSLSSVTTEDTAVYYCTRGIENWGPGLLVTVSSEGKSSGASGESKVDDDIQVTQSPSSLSASLTERVSITCRTSQSVNNYLSWYQQKPGQAPKLLIYYATRLYTDVPSRFSGSGSGTDYTLTITSLEADDTATYYCLQYDSTPLAFGGGTNVEIK | 458100 | 0.001654 | hT40, 239-441, 297-390 (dGA) | 355-367 | 355-367 | CA4 (355-367) | 355-367 | 355-367 | 358 (D), 360 (I), 361 (T), 362 (H) and/or 364 (P) | increase in immunoreactivity | 1.02e+06 | 0.001276 | 3 | –
CB3: anti-tau core clone, Table 10; SEQ ID NO: 370 (protein, CB3 amino acid sequence) scFv: QVQLQESGPSLVKPSQTLSLTCTVSGFSLSSVAVNWVRQAPGKVPEWLGGIISNGGTGYNPALKSRLSITRDTSKSQVSLALTHVTTEDTAVYYCGRGVEWEGSMDYLGPGLLVTVSSEGKSSGSGSETKVDDQSVLTQPSSVSGFLGQRVTITCSGSSSNVGAGSYVGWYQQVPGSGLRILIYGATKRASGLPDRFSGSRSGNTATLTISSLQAEDEADYYCVSYQTDFTLVFGSGTRLTVLG | – | – | hT40, 297-390 (dGA) | 360-390 | – | – | – | 360-390 | – | increase in immunoreactivity | – | – | – | –
CE3: anti-tau core clone, Table 10; SEQ ID NO: 367 (protein, CE3 amino acid sequence) scFv: QVRLQESGPSLVKPSQTLSVTCTVSGFSLISNAVGWVRQAPGKVPESLAGCSSDGKCYYNSALKSRLDITRDTSKNQISLSLSSVTTDDAAVYYCTRGYYPVYGYDYLGTIDYWGPGLLVTVSSEGKSSGASGESKVDDQAVLTQPSSVSGSLGQRVSITCSGSSSNVGRNDVAWFQQLPGSGLRTIIYGTTSRPSGIPDRFSGSKSGVTATLTIDSLQAEDEADYFCASGDSSAINDIFGSGTRLTVLG | 174500 | 0.000662 | hT40, 266-359 (R1-3) | 331-360 | 331-360 | – | – | 331-360 | – | increase in immunoreactivity | 103000 | 0.001718 | – | –
CA9: anti-tau clone, Tables 2 and 10; SEQ ID NO: 371 (protein, CA9 amino acid sequence) scFv: QVQLQESGPSLVKPSQTLSLTCTVSGFSLTSNSVGWVRQAPGKAPEWVAGIDTDGEEGYNPALNSRLSITRDTSKSQVSLSLSSVTSEDTAVYYCGRSYRSDGLAYGYVQAIDYWGPGLLVTVSSEGKSSGASGESKVDDQAVLTQPASVSGSLGQRVSITCSGSFIGISSVGWFQQLPGSGLRTIIVASDGRPSGVPDRFSMSKSGNTATLTISSLQAEDEADYFCGSSDRTQYTGVFGSGTRLTVLG | – | – | hT40, 239-441, 348-441, 297-390 (dGA) | 367-379 | – | – | – | – | 370 (K), and/or 374 (H) | increase in immunoreactivity | – | – | – | –
S1G2 mAb: S1G2 reformatted; heavy chain SEQ ID NO: 457, light chain 458 (antibody, S1G2 mAB Heavy Chain; S1G2 mAB Light Chain) heavy: QVQLQESGPSLVKPSQTLSLTCTVSGFSLTSNSVGWVRQAPGKAPEWVAGIDTDGEEGYNPALNSRLSITRDTSKSQVSLSLSSVTSEDTAVYYCGRSYRADGLAYGYVQAIDYWGPGLLVTVSSAKTTAPSVYPLAPVCGDTTGSSVTLGCLVKGYFPEPVTLTWNSGSLSSGVHTFPAVLQSDLYTLSSSVTVTSSTWPSQSITCNVAHPASSTKVDKKIEPRGPTIKPCPPCKCPAPNLLGGPSVFIFPPKIKDVLMISLSPIVTCVVVDVSEDDPDVQISWFVNNVEVHTAQTQTHREDYNSTLRVVSALPIQHQDWMSGKEFKCKVNNKDLPAPIERTISKPKGSVRAPQVYVLPPPEEEMTKKQVTLTCMVTDFMPEDIYVEWTNNGKTELNYKNTEPVLDSDGSYFMYSKLRVEKKNWVERNSYSCSVVHEGLHNHHTTKSFSRTPGK light: QAVVTQPSSVSGSLGQRVSITCSGSFIGISSVGWFQQLPGSGLRTIIVASDGRPSGVPDRFSMSKSGNTATLTISSLQAEDEADYFCGSSDRTPYTGVFGSGTRLTVLGGQPKSSPSVTLFPPSSEELETNKATLVCTITDFYPGVVTVDWKVDGTPVTQGMETTQPSKQSNNKYMASSYLTLTARAWERHSSYSCQVTHEGHTVEKSLSRADCS | – | – | – | – | – | – | – | – | – | – | – | – | – | ~1
